Results as given in PMC9482650, “Quantitative fragmentomics allow affinity mapping of interactomes” (Nature Communications, 2022).

Legend:
Assay in all cases: holdup assay
Parameters in all cases: key: below the threshold = too weak to quantify, mostly under pKd 3.1 to 4
Details in all cases: plain residues with an end cap or a label only (N-terminal biotin on a linker: ttds)
DLG2_1, Q15700 = target: DLG2_1, Q15700
DVL2, O14641 = target: DVL2, O14641
GRIP1_1, Q9Y3R0 = target: T1, GRIP1_1, Q9Y3R0
T1 sequence (Q9Y3R0 48-146, limits assumed, looked up): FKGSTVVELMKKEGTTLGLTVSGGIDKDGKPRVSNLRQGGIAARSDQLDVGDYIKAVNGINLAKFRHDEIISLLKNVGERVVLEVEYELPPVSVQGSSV

INTU, Q9ULD6 = target: T2, INTU, Q9ULD6
T2 sequence (Q9ULD6 180-273, limits assumed, looked up): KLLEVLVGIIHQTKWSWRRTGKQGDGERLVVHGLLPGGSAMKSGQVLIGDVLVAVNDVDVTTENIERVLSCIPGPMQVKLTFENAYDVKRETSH

LIMK1, P53667 = target: LIMK1, P53667
MAGI3_3, Q5TCQ9 = target: MAGI3_3, Q5TCQ9
MLLT4, P55196 = target: T3, MLLT4, P55196
T3 sequence (P55196 1002-1103, limits assumed, looked up): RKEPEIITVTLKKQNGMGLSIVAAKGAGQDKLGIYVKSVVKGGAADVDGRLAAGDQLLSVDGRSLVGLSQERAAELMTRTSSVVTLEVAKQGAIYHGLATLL

MPDZ_13, O75970 = target: T4, MPDZ_13, O75970
T4 sequence (O75970 1982-2070, limits assumed, looked up): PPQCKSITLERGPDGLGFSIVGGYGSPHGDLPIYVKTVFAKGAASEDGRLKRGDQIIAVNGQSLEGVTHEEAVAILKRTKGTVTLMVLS

MPP1, Q00013 = target: T5, MPP1, Q00013
T5 sequence (Q00013 66-162, limits assumed, looked up): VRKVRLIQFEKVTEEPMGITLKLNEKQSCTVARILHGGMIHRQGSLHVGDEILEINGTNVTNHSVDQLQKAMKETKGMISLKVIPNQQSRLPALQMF

NHERF3_2, Q5T2W1 = target: T6, NHERF3_2, Q5T2W1
T6 sequence (Q5T2W1 129-225, limits assumed, looked up): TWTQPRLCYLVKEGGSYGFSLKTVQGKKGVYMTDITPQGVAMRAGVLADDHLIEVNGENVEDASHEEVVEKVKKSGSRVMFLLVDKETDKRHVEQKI

PARD3B_3, Q8TEW8 = target: PARD3B_3, Q8TEW8
PDZD2_5, O15018 = target: T7, PDZD2_5, O15018
T7 sequence (O15018 2617-2716, limits assumed, looked up): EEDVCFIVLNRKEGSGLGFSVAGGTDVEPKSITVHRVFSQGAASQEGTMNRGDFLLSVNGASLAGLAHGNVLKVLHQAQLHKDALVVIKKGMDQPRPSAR

PDZD2_6, O15018 = target: T8, PDZD2_6, O15018
T8 sequence (O15018 2745-2839, limits assumed, looked up): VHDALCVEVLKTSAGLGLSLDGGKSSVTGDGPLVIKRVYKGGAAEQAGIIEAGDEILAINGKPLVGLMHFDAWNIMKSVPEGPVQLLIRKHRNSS

PREX2_2, Q70Z35 = target: T9, PREX2_2, Q70Z35
T9 sequence (Q70Z35 672-764, limits assumed, looked up): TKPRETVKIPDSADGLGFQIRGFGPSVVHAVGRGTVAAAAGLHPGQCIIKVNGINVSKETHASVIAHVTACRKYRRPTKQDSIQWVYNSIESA

RGS3, P49796-9 = target: RGS3, P49796-9
SDCBP_1, O00560 = target: SDCBP_1, O00560
SHANK2, Q9UPX8 = target: T10, SHANK2, Q9UPX8
T10 sequence (Q9UPX8 621-730, limits assumed, looked up): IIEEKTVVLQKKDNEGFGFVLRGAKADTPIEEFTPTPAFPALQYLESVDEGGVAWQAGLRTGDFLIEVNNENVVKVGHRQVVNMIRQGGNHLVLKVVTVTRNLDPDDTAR

SHROOM2, Q13796 = target: T11, SHROOM2, Q13796
T11 sequence (Q13796 21-118, limits assumed, looked up): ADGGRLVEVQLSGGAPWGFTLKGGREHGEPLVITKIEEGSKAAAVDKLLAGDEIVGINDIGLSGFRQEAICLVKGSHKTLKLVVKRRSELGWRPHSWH

SYNPO2L, Q9H987 = target: T12, SYNPO2L, Q9H987
T12 sequence (Q9H987 1-98, limits assumed, looked up): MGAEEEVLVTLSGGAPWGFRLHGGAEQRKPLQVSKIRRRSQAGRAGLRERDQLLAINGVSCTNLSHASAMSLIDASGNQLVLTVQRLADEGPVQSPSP

TJP1_1, Q07157 = target: TJP1_1, Q07157
TJP3_2, O95049 = target: T13, TJP3_2, O95049
T13 sequence (O95049 190-282, limits assumed, looked up): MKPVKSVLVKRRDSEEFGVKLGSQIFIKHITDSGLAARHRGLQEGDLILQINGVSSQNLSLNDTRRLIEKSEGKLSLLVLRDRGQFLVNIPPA

PDZRN3_2, Q9UPQ7 = target: T14, PDZRN3_2, Q9UPQ7
T14 sequence (Q9UPQ7 414-513, limits assumed, looked up): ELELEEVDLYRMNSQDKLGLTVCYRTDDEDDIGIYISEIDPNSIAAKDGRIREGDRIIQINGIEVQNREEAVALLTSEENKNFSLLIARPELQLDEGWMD

Sequence of RGS3, P49796-9 (P49796 other isoform, or with tags, fused parts or gaps): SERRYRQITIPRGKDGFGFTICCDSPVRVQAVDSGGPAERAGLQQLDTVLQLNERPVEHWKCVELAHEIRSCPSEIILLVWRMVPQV
Sequence of SDCBP_1, O00560 (O00560 111-198): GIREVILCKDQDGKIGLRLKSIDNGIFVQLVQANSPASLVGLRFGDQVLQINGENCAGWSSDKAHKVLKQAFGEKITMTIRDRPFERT
Sequence of MAGI3_3, Q5TCQ9 (Q5TCQ9 572-655): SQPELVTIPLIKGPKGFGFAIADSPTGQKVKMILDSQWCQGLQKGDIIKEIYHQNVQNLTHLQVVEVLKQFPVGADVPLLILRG
Sequence of TJP1_1, Q07157 (Q07157 18-120): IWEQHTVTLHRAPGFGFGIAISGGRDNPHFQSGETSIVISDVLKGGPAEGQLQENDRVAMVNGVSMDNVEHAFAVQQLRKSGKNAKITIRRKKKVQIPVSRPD
Sequence of LIMK1, P53667 (P53667 155-268): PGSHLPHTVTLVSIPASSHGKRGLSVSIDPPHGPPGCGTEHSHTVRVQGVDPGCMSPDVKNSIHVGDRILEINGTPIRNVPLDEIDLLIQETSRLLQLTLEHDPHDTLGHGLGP
Sequence of PARD3B_3, Q8TEW8 (Q8TEW8 490-594): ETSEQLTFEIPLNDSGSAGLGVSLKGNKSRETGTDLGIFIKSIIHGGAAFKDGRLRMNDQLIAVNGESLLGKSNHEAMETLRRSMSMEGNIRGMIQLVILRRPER
Sequence of DVL2, O14641 (O14641 260-359): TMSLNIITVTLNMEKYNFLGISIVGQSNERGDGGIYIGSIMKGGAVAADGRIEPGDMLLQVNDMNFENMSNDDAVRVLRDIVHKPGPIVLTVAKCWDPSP

| Binder | pKd (DLG2_1, Q15700) | pKd (DVL2, O14641) | pKd (GRIP1_1, Q9Y3R0) | pKd (INTU, Q9ULD6) | pKd (MAGI3_3, Q5TCQ9) | pKd (MLLT4, P55196) | pKd (MPDZ_13, O75970) | pKd (MPP1, Q00013) | pKd (NHERF3_2, Q5T2W1) | pKd (PARD3B_3, Q8TEW8) | pKd (PDZD2_5, O15018) | pKd (PDZD2_6, O15018) | pKd (PREX2_2, Q70Z35) | pKd (RGS3, P49796-9) | pKd (SDCBP_1, O00560) | pKd (SHANK2, Q9UPX8) | pKd (SHROOM2, Q13796) | pKd (SYNPO2L, Q9H987) | pKd (TJP1_1, Q07157) | pKd (TJP3_2, O95049) | also measured |
| --- | --- | --- | --- | --- | --- | --- | --- | --- | --- | --- | --- | --- | --- | --- | --- | --- | --- | --- | --- | --- | --- |
| RLQRRRETQV [HPV18-E6, P06463] | 5.11 | below the threshold | below the threshold | below the threshold | below the threshold | below the threshold | below the threshold | below the threshold | below the threshold | below the threshold | below the threshold | below the threshold | 4 | below the threshold | below the threshold | below the threshold | below the threshold | below the threshold | below the threshold | below the threshold | pKd (LIMK1, P53667): below the threshold |
| SKPTRRETEV [HPV35-E6, P27228] | 4.91 | below the threshold | below the threshold | below the threshold | – | 3.79 | 3.77 | below the threshold | below the threshold | 3.73 | 3.77 | below the threshold | 3.62 | below the threshold | below the threshold | below the threshold | below the threshold | below the threshold | below the threshold | – | pKd (PDZRN3_2, Q9UPQ7): 3.57 |
| RHTTSTETAV [HPV30-E6, P36809] | 4.84 | below the threshold | 4.59 | below the threshold | below the threshold | below the threshold | below the threshold | 5.17 | below the threshold | below the threshold | below the threshold | below the threshold | below the threshold | below the threshold | below the threshold | below the threshold | below the threshold | below the threshold | below the threshold | below the threshold | pKd (LIMK1, P53667): below the threshold; pKd (PDZRN3_2, Q9UPQ7): below the threshold |
| QRQARSETLV [HPV59-E6, Q81964] | 4.52 | below the threshold | below the threshold | below the threshold | below the threshold | 4.33 | below the threshold | 6.03 | below the threshold | below the threshold | below the threshold | below the threshold | below the threshold | below the threshold | below the threshold | 4.47 | below the threshold | below the threshold | below the threshold | below the threshold | pKd (LIMK1, P53667): below the threshold; pKd (PDZRN3_2, Q9UPQ7): below the threshold |
| RPLPRKVSQL [DOCK4, Q8N1I0] | below the threshold | below the threshold | 4.15 | – | below the threshold | below the threshold | below the threshold | 4.29 | below the threshold | below the threshold | below the threshold | below the threshold | below the threshold | below the threshold | below the threshold | below the threshold | below the threshold | below the threshold | below the threshold | below the threshold | pKd (PDZRN3_2, Q9UPQ7): below the threshold |
| SSLQSLETSV [ATP2B4, P23634] | 4.94 | – | below the threshold | below the threshold | below the threshold | below the threshold | below the threshold | 4.23 | below the threshold | below the threshold | below the threshold | below the threshold | below the threshold | below the threshold | below the threshold | below the threshold | below the threshold | below the threshold | below the threshold | below the threshold | pKd (LIMK1, P53667): below the threshold; pKd (PDZRN3_2, Q9UPQ7): below the threshold |
